Results published in the Human Domainome abundance scans (Beltran et al. 2025).
± gives the uncertainty stated by the source.

B1: Arginine-glutamic acid dipeptide repeats protein, residues 502 to 543; numbered along this chain, Q9P2R6 (parent)
chain: LKGYACRHCFTTTSKDWHHGGRENILLCTDCRIHFKKYGELP

Variants of: B1
Assay: abundance fitness (aPCA) (normalised: wild type 0, dead -1); higher = more abundant; growth selection in yeast, the domain comes from the species named
Conditions: Homo sapiens
LKGYACRHCITTTSKDWHHGGRENILLCTDCRIHFKKYGELP gave an abundance fitness of -0.352 ± 0.085.
Work on LKGYACRHCCTTTSKDWHHGGRENILLCTDCRIHFKKYGELP yielded an abundance fitness of -0.036 ± 0.051.
In the case of LKGYACRHCLTTTSKDWHHGGRENILLCTDCRIHFKKYGELP, the abundance fitness is reported as -0.068 ± 0.035.
LKGYACRHCKTTTSKDWHHGGRENILLCTDCRIHFKKYGELP showed an abundance fitness of 0.017 ± 0.041.
For LKGYACRHCATTTSKDWHHGGRENILLCTDCRIHFKKYGELP, the abundance fitness was 0.054 ± 0.032.
For LKGYACRHCDTTTSKDWHHGGRENILLCTDCRIHFKKYGELP, the abundance fitness was -0.08 ± 0.039.
For LKGYACRHCMTTTSKDWHHGGRENILLCTDCRIHFKKYGELP, the abundance fitness was -0.083 ± 0.048.
With LKGYACRHCNTTTSKDWHHGGRENILLCTDCRIHFKKYGELP the abundance fitness was -0.238 ± 0.058.
For LKGYACRHCHTTTSKDWHHGGRENILLCTDCRIHFKKYGELP, the abundance fitness was 0.134 ± 0.094.
With LKGYACHHCFTTTSKDWHHGGRENILLCTDCRIHFKKYGELP the abundance fitness was -0.441 ± 0.19.
In the case of LKGYACIHCFTTTSKDWHHGGRENILLCTDCRIHFKKYGELP, the abundance fitness is reported as -0.188 ± 0.15.
Variant LKGYACGHCFTTTSKDWHHGGRENILLCTDCRIHFKKYGELP has an abundance fitness of 0.029 ± 0.031.
LKGYACYHCFTTTSKDWHHGGRENILLCTDCRIHFKKYGELP gave an abundance fitness of -0.056 ± 0.045.
LKGYACLHCFTTTSKDWHHGGRENILLCTDCRIHFKKYGELP showed an abundance fitness of -0.067 ± 0.035.
LKGYACVHCFTTTSKDWHHGGRENILLCTDCRIHFKKYGELP gave an abundance fitness of -0.098 ± 0.034.
LKGYACNHCFTTTSKDWHHGGRENILLCTDCRIHFKKYGELP showed an abundance fitness of -0.115 ± 0.059.
Variant LKGYACAHCFTTTSKDWHHGGRENILLCTDCRIHFKKYGELP has an abundance fitness of 0.074 ± 0.036.
Variant LKGYACFHCFTTTSKDWHHGGRENILLCTDCRIHFKKYGELP has an abundance fitness of -0.185 ± 0.1.
LKGYACKHCFTTTSKDWHHGGRENILLCTDCRIHFKKYGELP gave an abundance fitness of 0.087 ± 0.043.
For LKGYACQHCFTTTSKDWHHGGRENILLCTDCRIHFKKYGELP, the abundance fitness was 0.036 ± 0.053.
In the case of LKGYACDHCFTTTSKDWHHGGRENILLCTDCRIHFKKYGELP, the abundance fitness is reported as -0.142 ± 0.097.
LKGYACSHCFTTTSKDWHHGGRENILLCTDCRIHFKKYGELP gave an abundance fitness of 0.021 ± 0.037.
LKGYACWHCFTTTSKDWHHGGRENILLCTDCRIHFKKYGELP showed an abundance fitness of -0.195 ± 0.039.
LKGYACEHCFTTTSKDWHHGGRENILLCTDCRIHFKKYGELP showed an abundance fitness of 0.064 ± 0.052.
With LKGYACPHCFTTTSKDWHHGGRENILLCTDCRIHFKKYGELP the abundance fitness was -0.293 ± 0.043.
LKGYACMHCFTTTSKDWHHGGRENILLCTDCRIHFKKYGELP gave an abundance fitness of -0.02 ± 0.042.
For LKGYACRWCFTTTSKDWHHGGRENILLCTDCRIHFKKYGELP, the abundance fitness was -0.044 ± 0.044.
With LKGYACRMCFTTTSKDWHHGGRENILLCTDCRIHFKKYGELP the abundance fitness was -0.347 ± 0.045.
LKGYACRKCFTTTSKDWHHGGRENILLCTDCRIHFKKYGELP showed an abundance fitness of -0.368 ± 0.058.
In the case of LKGYACRSCFTTTSKDWHHGGRENILLCTDCRIHFKKYGELP, the abundance fitness is reported as -0.136 ± 0.046.
Variant LKGYACRQCFTTTSKDWHHGGRENILLCTDCRIHFKKYGELP has an abundance fitness of -0.307 ± 0.046.
LKGYACRPCFTTTSKDWHHGGRENILLCTDCRIHFKKYGELP gave an abundance fitness of -0.836 ± 0.11.
In the case of LKGYACRTCFTTTSKDWHHGGRENILLCTDCRIHFKKYGELP, the abundance fitness is reported as -0.428 ± 0.053.
LKGYACRCCFTTTSKDWHHGGRENILLCTDCRIHFKKYGELP showed an abundance fitness of -0.259 ± 0.052.
With LKGYACRLCFTTTSKDWHHGGRENILLCTDCRIHFKKYGELP the abundance fitness was -0.489 ± 0.041.
In the case of LKGYACRFCFTTTSKDWHHGGRENILLCTDCRIHFKKYGELP, the abundance fitness is reported as -0.387 ± 0.065.
LKGYACRRCFTTTSKDWHHGGRENILLCTDCRIHFKKYGELP gave an abundance fitness of -0.229 ± 0.031.
In the case of LKGYACRNCFTTTSKDWHHGGRENILLCTDCRIHFKKYGELP, the abundance fitness is reported as 0.064 ± 0.058.
With LKGYACRACFTTTSKDWHHGGRENILLCTDCRIHFKKYGELP the abundance fitness was -0.189 ± 0.038.
LKGYACRGCFTTTSKDWHHGGRENILLCTDCRIHFKKYGELP gave an abundance fitness of -0.222 ± 0.034.
LKGYACRICFTTTSKDWHHGGRENILLCTDCRIHFKKYGELP showed an abundance fitness of -0.292 ± 0.064.
LKGYACRECFTTTSKDWHHGGRENILLCTDCRIHFKKYGELP showed an abundance fitness of -0.348 ± 0.045.
In the case of LKGYACRYCFTTTSKDWHHGGRENILLCTDCRIHFKKYGELP, the abundance fitness is reported as -0.238 ± 0.36.
In the case of LKGYACRHLFTTTSKDWHHGGRENILLCTDCRIHFKKYGELP, the abundance fitness is reported as -0.517 ± 0.042.
LKGYACRHTFTTTSKDWHHGGRENILLCTDCRIHFKKYGELP showed an abundance fitness of -0.44 ± 0.043.
In the case of LKGYACRHDFTTTSKDWHHGGRENILLCTDCRIHFKKYGELP, the abundance fitness is reported as -0.547 ± 0.061.
With LKGYACRHWFTTTSKDWHHGGRENILLCTDCRIHFKKYGELP the abundance fitness was -0.645 ± 0.061.
Work on LKGYACRHAFTTTSKDWHHGGRENILLCTDCRIHFKKYGELP yielded an abundance fitness of -0.425 ± 0.043.
Variant LKGYACRHMFTTTSKDWHHGGRENILLCTDCRIHFKKYGELP has an abundance fitness of -0.542 ± 0.063.
In the case of LKGYACRHNFTTTSKDWHHGGRENILLCTDCRIHFKKYGELP, the abundance fitness is reported as -0.271 ± 0.12.
Work on LKGYACRHRFTTTSKDWHHGGRENILLCTDCRIHFKKYGELP yielded an abundance fitness of -0.493 ± 0.037.
For LKGYACRHEFTTTSKDWHHGGRENILLCTDCRIHFKKYGELP, the abundance fitness was -0.318 ± 0.041.
In the case of LKGYACRHVFTTTSKDWHHGGRENILLCTDCRIHFKKYGELP, the abundance fitness is reported as -0.451 ± 0.048.
Work on LKGYACRHGFTTTSKDWHHGGRENILLCTDCRIHFKKYGELP yielded an abundance fitness of -0.455 ± 0.038.
Work on LKGYACRHSFTTTSKDWHHGGRENILLCTDCRIHFKKYGELP yielded an abundance fitness of -0.392 ± 0.073.
In the case of LKGYACRHKFTTTSKDWHHGGRENILLCTDCRIHFKKYGELP, the abundance fitness is reported as -0.371 ± 0.094.
Variant LKGYACRHYFTTTSKDWHHGGRENILLCTDCRIHFKKYGELP has an abundance fitness of -0.426 ± 0.087.
Variant LKGYACRHPFTTTSKDWHHGGRENILLCTDCRIHFKKYGELP has an abundance fitness of -0.494 ± 0.051.
For LKGWACRHCFTTTSKDWHHGGRENILLCTDCRIHFKKYGELP, the abundance fitness was -0.22 ± 0.04.
Work on LKGFACRHCFTTTSKDWHHGGRENILLCTDCRIHFKKYGELP yielded an abundance fitness of -0.032 ± 0.087.
